Biological target: T1, human CSF3 protein (human, UniProt P09919 31-207)
T1 construct: also called G-CSF; human colony-stimulating factor 3
T1 sequence: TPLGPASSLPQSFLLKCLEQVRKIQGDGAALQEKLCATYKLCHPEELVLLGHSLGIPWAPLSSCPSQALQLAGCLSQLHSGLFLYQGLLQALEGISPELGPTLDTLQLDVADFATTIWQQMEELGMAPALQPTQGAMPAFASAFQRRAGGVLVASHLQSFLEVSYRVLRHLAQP
Experiment: high-mass MALDI MS of a mixture of Y41 antibody and human CSF3 protein; complexes of one or two CSF3 with one Y41

binding result: binds
B1: C41 (or Y41) (antibody, human IgG1, kappa, V domains shown)
VH: EMQLVQSGAEARKPGSSVKVSCKASGYTFTNYGISWLRQTPGQGLEWMGWINPNSGGTIYAQKFQGRVTMTRDTPITTAYMELSTLRSEDTAVYYCSRGSGGAVPFDVWGQGTMVTVSS
VL: DIQMTQSPFSLSASVGDRVTITCRASQTISNRLNWYQHKPGKAPKLFIYYASSLQSGVPSRFSGSGSGTDFALTISSLQPEDFATYYCQQGYSSPRTFGQGTKVEIKR
notes: Human IgG1; the CDR numbers printed for Y41 disagree between places; also called 007A06; CSA1241

Source: patent EP4803540A1 (FNCTBiotech Inc., dated 2026)
